Article PMC7201271

Experiments:
[1] = molecular target: Neisseria meningitidis quinol-dependent nitric oxide reductase, wild type (Neisseria meningitidis); assay: native gel or EMSA; blue native PAGE of peak 1 and peak 2 fractions after concentration in 100 kDa cutoff devices; 5 and 10 ug loaded
[2] = molecular target: NmqNOR-BRIL (Neisseria meningitidis qNOR with apocytochrome b562 fused to its C-terminus) (Neisseria meningitidis); assay: cryo-EM structure; NmqNOR-BRIL peak 1 at 4 mg/ml, no additional buffer components; C2 symmetry, 3.06 A

Substance	stoichiometry N [1]	stoichiometry N [2]
Neisseria meningitidis quinol-dependent nitric oxide reductase, wild type (enzyme)	2	
NmqNOR-BRIL (Neisseria meningitidis qNOR with apocytochrome b562 fused to its C-terminus) (enzyme)		2
